Molecular target: T1, GST-U1A-His (human (amplified from A549 cells), UniProt P09012 1-282)
T1 construct: also called GST tagged U1A-His
Assay: pull-down; GST pulldown: 300 ng purified SRSF5-Flag with 150 ng glutathione-bound GST-tagged protein, 300 µL, 1 h at 4 °C; 50 mM Tris pH 7.5, 200 mM NaCl, 10% glycerol, 0.5% Triton-X-100, RNaseA; blot with anti-Flag or anti-His
Details: both partners purified

T1 sequence (P09012 whole entry): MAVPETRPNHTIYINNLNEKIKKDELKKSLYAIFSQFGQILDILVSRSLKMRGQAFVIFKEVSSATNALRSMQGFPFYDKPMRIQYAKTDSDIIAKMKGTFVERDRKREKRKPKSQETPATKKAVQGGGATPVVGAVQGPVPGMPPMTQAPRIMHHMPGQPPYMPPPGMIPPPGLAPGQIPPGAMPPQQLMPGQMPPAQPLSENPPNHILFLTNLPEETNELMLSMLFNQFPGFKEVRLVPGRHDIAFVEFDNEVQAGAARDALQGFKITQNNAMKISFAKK

B1: purified recombinant SRSF5-Flag (natural protein, human, UniProt Q13243 1-272, looked up)
chain: MSGCRVFIGRLNPAAREKDVERFFKGYGRIRDIDLKRGFGFVEFEDPRDADDAVYELDGKELCSERVTIEHARARSRGGRGRGRYSDRFSSRRPRNDRRNAPPVRTENRLIVENLSSRVSWQDLKDFMRQAGEVTFADAHRPKLNEGVVEFASYGDLKNAIEKLSGKEINGRKIKLIEGSKRHSRSRSRSRSRTRSSSRSRSRSRSRSRKSYSRSRSRSRSRSRSKSRSVSRSPVPEKSQKRGSSSRSKSPASVDRQRSRSRSRSRSVDSGN
notes: also called hSRSF5-Flag; Flag-SRSF5
Q: Does B1 bind?
A: binds

Source: PMC9731694, “SRSF5‐Mediated Alternative Splicing of M Gene is Essential for Influenza A Virus Replication: A Host‐Directed Target Against Influenza Virus” (Advanced Science, 2022)
